Experimental data as given in patent US20250163186A1 (PHYLAXIS BIOSCIENCE, published 2025).
Where two headings read alike, the source gives them in different places. Blank lines part the entries; values can stand above or below the binder they belong to.

Columns and labels:
[1] = biological target: recombinant human anti-hapten dinitrophenol (DNP) IgE (rhIgE) (human, UniProt P01854-1 1-428); assay: cell-based or functional assay
human IgE [2] = biological target: T1, human IgE (human, UniProt P01854 1-428); assay: ELISA, plate-coated IgE
T1 construct: written under the same molecule; also called IgE (Abcam ab65866); soluble IgE
T1 sequence (P01854 other isoform, or with tags, fused parts or gaps limits assumed, form in doubt): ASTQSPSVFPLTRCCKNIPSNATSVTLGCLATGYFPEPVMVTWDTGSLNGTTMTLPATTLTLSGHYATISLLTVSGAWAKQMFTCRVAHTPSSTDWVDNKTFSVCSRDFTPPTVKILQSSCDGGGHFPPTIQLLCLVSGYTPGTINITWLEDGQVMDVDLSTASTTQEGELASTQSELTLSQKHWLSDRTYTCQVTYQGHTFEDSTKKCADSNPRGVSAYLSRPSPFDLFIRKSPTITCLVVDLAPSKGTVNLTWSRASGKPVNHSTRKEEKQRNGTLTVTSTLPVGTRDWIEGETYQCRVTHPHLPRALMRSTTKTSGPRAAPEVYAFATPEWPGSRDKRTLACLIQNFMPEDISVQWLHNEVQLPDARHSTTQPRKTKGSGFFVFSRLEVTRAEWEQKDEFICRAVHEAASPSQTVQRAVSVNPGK

human IgE [3] = biological target: T1, human IgE; assay: ELISA, plate-coated IgE; remark: listed apart in the source
human IgE [4] = biological target: T1, human IgE; assay: ELISA, human IgE coated
Procedure: (§1) The following day, plates were blocked with 1% BSA in PBS for 30 min-1 hour. […] Afterwards, the plates were PBST washed with the plate washer and detected with Peroxidase AffiniPure Donkey Anti-Human IgG, Fcγ fragment specific secondary detection antibody. Room temperature TMB was added and OD650 was measured using the Emax plate reader. […] Room temperature TMB was added and OD650 was measured using the Emax plate reader. The data was plotted and analyzed using GraphPad Prism analysis software.

human IgE [5] = biological target: T1, human IgE; assay: ELISA, human IgE coated; remark: listed apart in the source
Procedure: as §1

[6] = biological target: human IgG2 (Athensresearch, 16-16-090707-2) (human, UniProt P01859-1 1-326 = IgG part); assay: ELISA, human IgG2 coated
[7] = biological target: human IgE pre-complexed to FCER1A on the surface of human mast cells (human, UniProt P01854-1 1-428); assay: flow cytometry on IgE-loaded human mast cells
Chain of human IgE pre-complexed to FCER1A on the surface of human mast cells (P01854 other isoform, or with tags, fused parts or gaps): as the sequence (P01854 other isoform, or with tags, fused parts or gaps limits assumed, form in doubt) above

[8] = biological target: T2, recombinant human FCER1A-His (ACRO FCA-H5228) (human, UniProt P12319 26-205); assay: SPR, antibody alone injected over captured FCER1A
T2 construct: Bought protein; also called FceRIA; IgE receptor
T2 sequence: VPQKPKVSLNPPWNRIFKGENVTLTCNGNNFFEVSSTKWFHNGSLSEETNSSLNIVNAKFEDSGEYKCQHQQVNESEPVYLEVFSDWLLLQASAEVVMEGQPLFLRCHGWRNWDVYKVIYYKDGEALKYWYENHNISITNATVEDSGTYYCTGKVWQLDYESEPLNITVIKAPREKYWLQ
Procedure: (§2) All experiments were done using a Biacore T200 instrument with a CM5 chip at 25° C., Flow Cell (FC) 1 was used as the reference for FC2, and FC3 for FC4.
(§3) Anti-His antibody (1 mg/ml stock) was diluted (1:100 dilution, 0.01 mg/ml diluted concentration) in 10 mM sodium acetate buffer at pH 4.5 and immobilized onto FCs 1 and 2 to a level of ˜14000 RU, using the standard amine coupling chemistry. […] FCER1A (0.4 mg/ml stock concentration) was diluted ([…], ˜0.004 mg/ml diluted concentration) in PBS-P captured onto FC2 to levels of ˜130 RU. PBS-P was used as the capture running buffer. Overnight kinetics were performed for all analytes in the presence of PBS-P. The flow rate of all analyte solutions was maintained at 50 μL/min. The contact and dissociation times used were 120 seconds and 300 seconds, respectively. Glycine pH 1.5 was injected for 20 seconds for surface regeneration. This regeneration condition takes away all captured FCER1A. Therefore, fresh FCER1A was captured in the beginning of each injection cycle. […] All analytes were injected in duplicate. […] Sensorgrams from the overnight kinetics were plotted for further evaluation.

[9] = biological target: T3, human IgE pre-complexed to FceRII/CD23 on the surface of RPMI 8866 cells (human, UniProt P01854 1-428; P06734 1-321); assay: flow cytometry, IgE-loaded RPMI 8866 cells
T3 construct: also called IgE:CD23 complexes; IgE in complex with CD23
T3 sequence (P01854 other isoform, or with tags, fused parts or gaps, chain 1 of 2): as the sequence (P01854 other isoform, or with tags, fused parts or gaps limits assumed, form in doubt) above
T3 sequence (P06734 whole entry, chain 2 of 2): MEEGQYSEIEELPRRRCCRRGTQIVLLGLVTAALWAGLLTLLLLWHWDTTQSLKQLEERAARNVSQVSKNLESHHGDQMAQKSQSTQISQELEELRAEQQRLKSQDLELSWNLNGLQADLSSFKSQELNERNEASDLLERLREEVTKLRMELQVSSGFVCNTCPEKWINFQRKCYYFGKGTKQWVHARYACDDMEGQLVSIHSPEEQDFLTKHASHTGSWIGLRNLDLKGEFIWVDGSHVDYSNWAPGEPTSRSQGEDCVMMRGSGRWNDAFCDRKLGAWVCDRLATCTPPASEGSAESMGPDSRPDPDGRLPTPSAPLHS
Procedure: The washed cells were diluted to 0.8×10⁶ cells/mL. 50 μL of this cell suspension was then transferred to wells of a round-bottom 96-well assay plate (40 k cells/well). 50 μL of titrated test articles (diluted to 1 μM and titrated across 1:3 in FACS buffer) were added to the RPMI 8866 cells which produced a 2-fold dilution of the antibody concentrations from the titration series. The final starting concentration was 500 nM with a total of 11 points in the titration. […] The cells were incubated with secondary detection antibodies for 20 minutes then washed once, resuspended in 60 μL of FACS Buffer, and analyzed on a NovoCyte 3000 flow cytometer (ACEA Biosciences, Inc.).

human IgE [10] = biological target: T1, human IgE; assay: ELISA, plate-coated IgE, apparent Kd (one site fit)
Text: The data was plotted and analyzed using GraphPad Prism analysis software.

human IgE [11] = biological target: T1, human IgE; assay: as above; remark: listed apart in the source
[12] = biological target: T4, chimeric cynomolgus monkey IgE (cynomolgus monkey (Macaca fascicularis)); assay: ELISA, plate-coated cynomolgus IgE, apparent Kd (one site fit)
T4 construct: domain: CH1-4 constant domains; Generated in house in place of commercial cynomolgus IgE; also called cyno IgE

human IgE [13] = biological target: T1, human IgE; assay: SPR, blocks binding of 5 nM IgE to captured FCER1A
Procedure: as §2, §3

human IgE [14] = biological target: T1, human IgE; assay: ELISA, blocks binding of 5 nM IgE to coated FCER1A
Procedure: as §1

human IgE [15] = biological target: T1, human IgE; assay: ELISA, blocks binding of 5 nM IgE to coated FCER1A; remark: listed apart in the source
Procedure: as §1

human IgE [16] = biological target: T1, human IgE; assay: SPR, blocks binding of 5 nM IgE to captured FCER1A; remark: listed apart in the source
Procedure: All experiments were done using a Biacore T200 instrument with a CM5 chip at 37° C. except immobilization of Protein L, which was done at 25° C.
Sensorgrams from the overnight kinetics were plotted for further evaluation.

human IgE [17] = biological target: T1, human IgE; assay: ELISA, blocks binding of 5 nM IgE to coated FCER2/CD23
Procedure: as §1

[18] = biological target: T5, CH2-4 constant domains of human IgE linked to a transmembrane protein, on 293 cells (human, UniProt P01854-1 104-428); assay: flow cytometry, 293 cells expressing human IgE CH2-4
T5 construct: domain: CH2-4 constant domains; also called human IgE-expressing 293 cells
T5 sequence (P01854 other isoform, or with tags, fused parts or gaps): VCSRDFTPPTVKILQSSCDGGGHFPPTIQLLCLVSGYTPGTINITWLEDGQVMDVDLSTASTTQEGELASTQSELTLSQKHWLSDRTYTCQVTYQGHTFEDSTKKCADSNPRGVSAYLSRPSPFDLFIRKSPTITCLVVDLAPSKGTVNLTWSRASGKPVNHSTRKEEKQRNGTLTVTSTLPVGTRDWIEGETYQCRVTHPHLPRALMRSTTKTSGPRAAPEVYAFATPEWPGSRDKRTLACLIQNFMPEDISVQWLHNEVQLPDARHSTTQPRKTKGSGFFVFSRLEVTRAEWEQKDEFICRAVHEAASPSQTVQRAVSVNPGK
Procedure: (§4) First, 25 μg of DNA was added to Opti-MEM Reduced Serum Medium (Gibco) mixed with 75 μL of 40 kDa Polyethylenimine (PEI) for a final concentration of 1 μg DNA and 2.5 μg PEI per mL of culture volume. The plasmid DNA was allowed to pre-complex with PEI for 15 minutes before transferring the mixture to 25 mL of 293 cells in a shake flask at a density of 2×10⁶ cells/mL. […] Next, 50 μL of cells were transferred to wells of a round-bottom 96-well assay plate for a total of 50,000 293 cells per well. In a separate 96-well plate, monomeric VHH-hIgG1-Fc fusion proteins were titrated 1:5 in a 8-point dilution series starting at 1 μM in FACS Buffer with the 8th point containing no antibody. 50 μL from each antibody dilution was added to wells containing 50 μL of FACS Buffer with transfected 293 cells which produced a 2-fold dilution of the antibody concentrations from the dilution series resulting in a 500 nM final, starting concentration of the test article titration. The test articles and 293 cells were incubated together at 4° C. for 30 minutes. Next, the 96-well plates were centrifuged at 400×g for 5 minutes and the FACS buffer containing unbound antibody was decanted. Cells were washed 1× with 150 μL 4° C. FACS Buffer. […] The cells were incubated with the fluorophore conjugated detection antibody at 4° C. for 20 minutes. 293 cells were then centrifuged and washed once as described above. Cell pellets were resuspended in 30 μL FACS Buffer and analyzed on an iQue Screener Plus flow cytometer (Sartorius, IntelliCyt) with a 1 second sip time and 1 second void time. Mean fluorescent intensity was calculated using iQue onboard software gating on GFP+ or citrine+ cells.

[19] = biological target: T5, CH2-4 constant domains of human IgE …; assay: as above; remark: listed apart in the source
Procedure: as §4

[20] = biological target: T5, CH2-4 constant domains of human IgE …; assay: as above; remark: listed apart in the source
Procedure: as §4

[21] = biological target: T5, CH2-4 constant domains of human IgE …; assay: as above; remark: listed apart in the source
Procedure: as §4

[22] = biological target: T5, CH2-4 constant domains of human IgE …; assay: as above; remark: listed apart in the source
Procedure: as §4

human IgE [23] = biological target: T1, human IgE; assay: SPR (Biacore T200, 25 C), IgE captured on protein L, antibody as analyte, 1:1 fit
Procedure: as §2
Protein L (15 mg/mL) was diluted (1:50 dilution, 0.3 mg/mL diluted concentration) in 10 mM sodium acetate buffer at pH 4.5 and immobilized onto FCs 1 and 2 to a level of ˜13000 RU, using the standard amine coupling chemistry. […] PBS-P was used as the capture running buffer. Overnight kinetics were performed for all analytes in the presence of PBS-P. The flow rate of all analyte solutions was maintained at 50 μL/min. The contact and dissociation times used were 120 seconds and 600 seconds, respectively. Glycine pH 2.0 was injected for 20 seconds for surface regeneration. This regeneration condition takes away all captured ligand. Therefore, fresh ligand solution was captured in the beginning of each injection cycle. Injected analyte concentrations are from 50 nM to 0.098 nM (two-fold dilutions). All analytes were injected in duplicate. Sensorgrams from the overnight kinetics were evaluated by using 1:1 kinetics model fitting.

Chain of recombinant human anti-hapten dinitrophenol (DNP) IgE (rhIgE) (P01854 other isoform, or with tags, fused parts or gaps): as the sequence (P01854 other isoform, or with tags, fused parts or gaps limits assumed, form in doubt) above

- Activation IC50 (nM), CD63 on mast cells [1]: 1.93 nM
- Bmax (OD 650 nm) (human IgE [2]): 0.814 OD 650 nm
- Bmax (OD 650 nm) (human IgE [3]): 0.946 OD 650 nm
- Bmax (human IgE [4]): 0.95 OD 650
- Kd (human IgE [4]): 0.0585 nM
- Bmax (human IgE [5]): 1.2 OD 650
- Kd (human IgE [5]): 0.123 nM
- binding result [6]: no binding (tested: 250 nM)
- binding result [8]: no binding (tested: 200 nM)
- Bmax [9]: 15000 Mean APC-A
- Kd [9]: 6.17 nM
- Kd (human IgE [10]): 0.102 nM
- Kd (human IgE [11]): 0.127 nM
- Kd [12]: 0.288 nM
- IC50 (human IgE [13]): ~2.1 nM
- IC50 (human IgE [14]): 5.59 nM
- IC50 (human IgE [15]): 2.71 nM
- IC50 (human IgE [16]): ~3.2 nM
- IC50 (human IgE [17]): 0.604 nM
B1: cx10710, comprising IgG1 SELF Fc (antibody, V domains shown)
VH: QVQLQESGPGLVKPSETLSLTCAVSGYSITSGYSWNWIRQPPGKKLEWIGSITYDGSSNYNPSLKSRVTISRDTSKNQFSLKLSSVTAADTAVYYCARGSHYFGHWHFAVWGAGTLVTVSS
VL: DIQLTQSPSSLSASVGDRVTITCRASQSVDYDGDSYMNWYQQKPGQPPKLLIYAASYLGSEIPARFSGSGSGTDFTLTISSLQPEDFATYYCQQSHEDPYTFGAGTKLEIKR
notes: Conventional full length anti-IgE antibody with IgG1 SELF Fc; also called conventional antibody comparator; 710 (a derivative of Omalizumab); copies: 2 + 2
- binding result [7]: no binding (tested: titrated from 1000 nM)

- Bmax [18]: 1.36e+06 MFI
- Kd [18]: 1.82 nM
- Kd [19]: 1.82 nM
- Bmax [20]: 866000 MFI
- Kd [20]: 0.461 nM
- Bmax [21]: 2.04e+06 MFI
- Kd [21]: 0.872 nM
- Bmax [22]: 1.17e+06 MFI
- Kd [22]: 1.3 nM
B2: B10-NNT (Fc fusion)
VHH-Fc: EVQLVQSGGELVQAGGSLRLSCVASGLTFSSYNMGWLRQAPGKEREFVGMSGSSSTSTYYADSVKGRFTISRDNSKNTVYLQMNSLKPEDTAVYYCAARRMLSTYWSDRSWDFWGQGTQVTVKPGGPSVFLFPPKPKDTLMISRTPEVTCVVVDVSHEDPEVKFNWYVDGVEVHNAKTKPREEQYNSTYRVVSVLTVLHQDWLNGKEYKCKVSNKALPAPIEKTISKAKGQPREPQVYTLPPSRDELTKNQVNLTCLVKGFYPSDIAVEWESNGQPENNYKTTPPVLDSDGSFFLNSTLTVDKSRWQQGNVFSCSVMHEALHNHYTQKSLSLSPGK
notes: monomeric; also called parental B10 monomeric VHH-hIgG1-Fc fusion (Fc NNT)

- Bmax (OD 650 nm) (human IgE [2]): 0.742 OD 650 nm
- binding result [8]: no binding (tested: 200 nM)
- Kd (human IgE [10]): 0.197 nM
- IC50 (human IgE [13]): ~2.4 nM
- Kd (human IgE [23]): 0.8 nM
- koff (human IgE [23]): 0.000288 s⁻¹
- kon (human IgE [23]): 359000 M⁻¹ s⁻¹
B3: hzB10v14-IgG1 DSELF Fc region (cx12739) (Fc fusion)
chain: EVQLLESGGGEVQPGGSLRLSCVASGLTFSSYNMGWLRQAPGKEREFVGLSGSSSTSTYYADSVKGRFTISRDNSKNTVYLQMNSLKPEDTAVYYCAARRLLSTYWSDRSWDFWGQGTQVTVEPGGGGDKTHTCPPCPAPELLDGPSVFLFPPKPKDTLMISRTPEVTCVVVDVEHEDPEVKFNWYVDGVEVHNAKTKPREEQYNSTYRVVSVLTVLHQDWLNGKEYKCKVSNKAFPAPIEKTISKAKGQPREPQVYTLPPSREEMTKNQVSLTCLVKGFYPSDIAVEWESNGQPENNYKTTPPVLDSDGSFFLYSKLTVDKSRWQQGNVFSCSVMHEALHNHYTQKSLSLSPGK
notes: hzB10v14 VHH + GGGG linker + human IgG1 Fc with G236D/S267E/L328F; the Fc drives homodimer formation (bivalent); also called hzB10v14-DSELF; hzB10v14-IgG DSELF Fc
